The values that follow come from article PMC5309722, “A substrate-bound structure of cyanobacterial biliverdin reductase identifies stacked substrates as critical for activity” (Nature Communications, 2017).

The target in one data set is T1, Syn BVR (Synechocystis sp. PCC 6803, UniProt P72782).
T1 construct: gene bvdR; full length, 328 residues; N-terminal His6 tag (pET15b), E. coli C41(DE3); tag cut with thrombin for crystals
Nature of the data set: X-ray crystal structure, soaked crystal, […] Å. The settings on record: 10 mM NADP+ soak; no biliverdin; cleft between the two domains. The format is binding.

Substrate in data set [1]: C=CC1=C(C)/C(=C/c2[nH]c(/C=C3N=C(/C=C4\NC(=O)C(C)=C4C=C)C(C)=C\3CCC(=O)O)c(CCC(=O)O)c2C)NC1=O
Nature of the data set: steady-state kinetics, A450 bilirubin formation. The format is biochemical, Synechocystis sp. PCC 6803. The settings on record: 100 μM NADPH, 100 mM citrate pH 5.75. The text has this:
steady-state kinetics, A450 bilirubin formation on Syn BVR

Substrate in data set [2]: C=CC1=C(C)/C(=C/c2[nH]c(/C=C3N=C(/C=C4\NC(=O)C(C)=C4C=C)C(C)=C\3CCC(=O)O)c(CCC(=O)O)c2C)NC1=O
Nature of the data set: steady-state kinetics, A450 bilirubin formation. The format is biochemical, Rattus norvegicus. The settings on record: 100 μM NADPH, 100 mM Tris-HCl pH 8.75. The text has this:
steady-state kinetics, A450 bilirubin formation on rat BVR

Substrate in data set [3]: C=CC1=C(C)/C(=C/c2[nH]c(/C=C3N=C(/C=C4\NC(=O)C(C)=C4C=C)C(C)=C\3CCC(=O)O)c(CCC(=O)O)c2C)NC1=O
Nature of the data set: steady-state kinetics, A450 bilirubin formation. Type of data set: biochemical, Homo sapiens. The settings on record: 100 μM NADPH, 100 mM Tris-HCl pH 8.75. The text has this: steady-state kinetics, A450 bilirubin formation on human BVR

On to `NC(=O)c1ccc[n+]([C@@H]2O[C@H](COP(=O)(O)OP(=O)(O)OC[C@H]3O[C@@H](n4cnc5c(N)ncnc54)[C@H](OP(=O)(O)O)[C@@H]3O)[C@@H](O)[C@H]2O)c1` [NADP^+], for which the “X-ray crystal structure, soaked crystal, 2.7 Å” value on Syn BVR was “NADP^+ binds in the cleft between the two domains”.

B1: Syn BVR (Synechocystis sp. PCC 6803 substr. Kazusa; R246A) (protein)
chain: MSENFAVATPVRVGIVGTGYAAQRRAEVFRGDRRSQLVSFWGNSEANTAKFADTFGVRPQQSWQALINDPEIDLVLIATINQLHGAIAEAALQAGKHVVLEYPLALTYAMGKKLQQLAREKGKLLHVEHIELLGGVHQAIRQNLGKIGEVFYARYSTIMGQNPAPQRWTYHHQQFGFPLVAALSRISRFTDLFGTVQQVDAQCRFWDQPNPEYFRACLATAYLQFNNGLKAEVIYGKGEVFHQNEAIFTLHGDRGTLIFVGETGRLIQGQTETEITVGSRRGLFRQDTEAVLDYLTTGKPLYVDLEASLYALEVADLCAQACGYKVEN
notes: full length, 328 residues; N-terminal His6 tag (pET15b), E. coli C41(DE3); tag cut with thrombin for crystals
On to B1, for which, in data set [1], the Km (commonly the substrate concentration at which the rate is half of its maximum) was 5.1 ± 0.8 µM; the kcat (in general, the maximal rate divided by the concentration of active sites) came to 11 ± 0.6 s⁻¹; the specificity constant (kcat/Km) (in general, the second-order rate constant that governs catalysis at low substrate concentration) was 2.2e+06 M⁻¹ s⁻¹.

B2: Syn BVR (Synechocystis sp. PCC 6803 substr. Kazusa; T169A) (protein)
chain: MSENFAVATPVRVGIVGTGYAAQRRAEVFRGDRRSQLVSFWGNSEANTAKFADTFGVRPQQSWQALINDPEIDLVLIATINQLHGAIAEAALQAGKHVVLEYPLALTYAMGKKLQQLAREKGKLLHVEHIELLGGVHQAIRQNLGKIGEVFYARYSTIMGQNPAPQRWAYHHQQFGFPLVAALSRISRFTDLFGTVQQVDAQCRFWDQPNPEYFRACLATAYLQFNNGLKAEVIYGKGEVFHQNERIFTLHGDRGTLIFVGETGRLIQGQTETEITVGSRRGLFRQDTEAVLDYLTTGKPLYVDLEASLYALEVADLCAQACGYKVEN
notes: as for B1
Turning to B2, in data set [1], the Michaelis-Menten constant (Km) was found to be 3.4 ± 0.5 µM, the kcat was 13.1 ± 0.5 s⁻¹ and the catalytic efficiency (kcat/Km) worked out at 3.9e+06 M⁻¹ s⁻¹.

B3: Syn BVR (Synechocystis sp. PCC 6803 substr. Kazusa; R185K) (protein)
chain: MSENFAVATPVRVGIVGTGYAAQRRAEVFRGDRRSQLVSFWGNSEANTAKFADTFGVRPQQSWQALINDPEIDLVLIATINQLHGAIAEAALQAGKHVVLEYPLALTYAMGKKLQQLAREKGKLLHVEHIELLGGVHQAIRQNLGKIGEVFYARYSTIMGQNPAPQRWTYHHQQFGFPLVAALSKISRFTDLFGTVQQVDAQCRFWDQPNPEYFRACLATAYLQFNNGLKAEVIYGKGEVFHQNERIFTLHGDRGTLIFVGETGRLIQGQTETEITVGSRRGLFRQDTEAVLDYLTTGKPLYVDLEASLYALEVADLCAQACGYKVEN
notes: as for B1
With B3, in data set [1], the Km came out at 12.6 ± 1.5 µM, the kcat stood at 0.9 ± 0.05 s⁻¹ and the kcat/Km worked out at 70000 M⁻¹ s⁻¹.

B4: Syn BVR (Synechocystis sp. PCC 6803 substr. Kazusa; Y102F) (protein)
chain: MSENFAVATPVRVGIVGTGYAAQRRAEVFRGDRRSQLVSFWGNSEANTAKFADTFGVRPQQSWQALINDPEIDLVLIATINQLHGAIAEAALQAGKHVVLEFPLALTYAMGKKLQQLAREKGKLLHVEHIELLGGVHQAIRQNLGKIGEVFYARYSTIMGQNPAPQRWTYHHQQFGFPLVAALSRISRFTDLFGTVQQVDAQCRFWDQPNPEYFRACLATAYLQFNNGLKAEVIYGKGEVFHQNERIFTLHGDRGTLIFVGETGRLIQGQTETEITVGSRRGLFRQDTEAVLDYLTTGKPLYVDLEASLYALEVADLCAQACGYKVEN
notes: as for B1
Consider B4, for which, in data set [1], the Michaelis-Menten constant (Km) was 4.0 ± 0.3 µM, the kcat worked out at 2.7 ± 0.07 s⁻¹ and the catalytic efficiency (kcat/Km) was determined as 700000 M⁻¹ s⁻¹.

B5: Syn BVR (Synechocystis sp. PCC 6803 substr. Kazusa; R185A) (protein)
chain: MSENFAVATPVRVGIVGTGYAAQRRAEVFRGDRRSQLVSFWGNSEANTAKFADTFGVRPQQSWQALINDPEIDLVLIATINQLHGAIAEAALQAGKHVVLEYPLALTYAMGKKLQQLAREKGKLLHVEHIELLGGVHQAIRQNLGKIGEVFYARYSTIMGQNPAPQRWTYHHQQFGFPLVAALSAISRFTDLFGTVQQVDAQCRFWDQPNPEYFRACLATAYLQFNNGLKAEVIYGKGEVFHQNERIFTLHGDRGTLIFVGETGRLIQGQTETEITVGSRRGLFRQDTEAVLDYLTTGKPLYVDLEASLYALEVADLCAQACGYKVEN
notes: as for B1
In the case of B5, in data set [1], the Michaelis constant (Km) stood at 6.9 ± 0.6 µM, the turnover number (kcat) was found to be 0.7 ± 0.02 s⁻¹ and the specificity constant (kcat/Km) came to 100000 M⁻¹ s⁻¹.

B6: Syn BVR (Synechocystis sp. PCC 6803 substr. Kazusa) (protein)
chain: MSENFAVATPVRVGIVGTGYAAQRRAEVFRGDRRSQLVSFWGNSEANTAKFADTFGVRPQQSWQALINDPEIDLVLIATINQLHGAIAEAALQAGKHVVLEYPLALTYAMGKKLQQLAREKGKLLHVEHIELLGGVHQAIRQNLGKIGEVFYARYSTIMGQNPAPQRWTYHHQQFGFPLVAALSRISRFTDLFGTVQQVDAQCRFWDQPNPEYFRACLATAYLQFNNGLKAEVIYGKGEVFHQNERIFTLHGDRGTLIFVGETGRLIQGQTETEITVGSRRGLFRQDTEAVLDYLTTGKPLYVDLEASLYALEVADLCAQACGYKVEN
notes: as for B1
For B6, in data set [1], the Km was found to be 1.8 ± 0.3 µM, the kcat turned out to be 7.1 ± 0.2 s⁻¹ and the specificity constant (kcat/Km) was determined as 3.9e+06 M⁻¹ s⁻¹.

B7: rat BVR (Rattus norvegicus) (protein)
chain: MDAEPKRKFGVVVVGVGRAGSVRLRDLKDPRSAAFLNLIGFVSRRELGSLDEVRQISLEDALRSQEIDVAYICSESSSHEDYIRQFLQAGKHVLVEYPMTLSFAAAQELWELAAQKGRVLHEEHVELLMEEFEFLRREVLGKELLKGSLRFTASPLEEERFGFPAFSGISRLTWLVSLFGELSLISATLEERKEDQYMKMTVQLETQNKGLLSWIEEKGPGLKRNRYVNFQFTSGSLEEVPSVGVNKNIFLKDQDIFVQKLLDQVSAEDLAAEKKRIMHCLGLASDIQKLCHQKK
notes: C-terminal His tag (pET21a-rat bvr), E. coli BL21(DE3)
Turning to B7, in data set [2], the Michaelis constant (Km) turned out to be 4.6 ± 1.1 µM, the catalytic constant (kcat) came to 69.3 ± 8.5 s⁻¹ and the specificity constant (kcat/Km) stood at 1.51e+07 M⁻¹ s⁻¹.

B8: rat BVR (Rattus norvegicus; R171A) (protein)
chain: MDAEPKRKFGVVVVGVGRAGSVRLRDLKDPRSAAFLNLIGFVSRRELGSLDEVRQISLEDALRSQEIDVAYICSESSSHEDYIRQFLQAGKHVLVEYPMTLSFAAAQELWELAAQKGRVLHEEHVELLMEEFEFLRREVLGKELLKGSLRFTASPLEEERFGFPAFSGISALTWLVSLFGELSLISATLEERKEDQYMKMTVQLETQNKGLLSWIEEKGPGLKRNRYVNFQFTSGSLEEVPSVGVNKNIFLKDQDIFVQKLLDQVSAEDLAAEKKRIMHCLGLASDIQKLCHQKK
notes: as for B7
With B8, in data set [2], the Michaelis constant (Km) is 24.4 ± 1.5 µM, the kcat stood at 6 ± 0.2 s⁻¹ and the catalytic efficiency (kcat/Km) amounted to 200000 M⁻¹ s⁻¹.

B9: rat BVR (Rattus norvegicus; R171E) (protein)
chain: MDAEPKRKFGVVVVGVGRAGSVRLRDLKDPRSAAFLNLIGFVSRRELGSLDEVRQISLEDALRSQEIDVAYICSESSSHEDYIRQFLQAGKHVLVEYPMTLSFAAAQELWELAAQKGRVLHEEHVELLMEEFEFLRREVLGKELLKGSLRFTASPLEEERFGFPAFSGISELTWLVSLFGELSLISATLEERKEDQYMKMTVQLETQNKGLLSWIEEKGPGLKRNRYVNFQFTSGSLEEVPSVGVNKNIFLKDQDIFVQKLLDQVSAEDLAAEKKRIMHCLGLASDIQKLCHQKK
notes: as for B7
Regarding B9, in data set [2], the Michaelis constant (Km) stood at 45.7 ± 15.4 µM, the kcat worked out at 0.7 ± 0.2 s⁻¹ and the catalytic efficiency (kcat/Km) came to 20000 M⁻¹ s⁻¹.

B10: rat BVR (Rattus norvegicus; Y97F) (protein)
chain: MDAEPKRKFGVVVVGVGRAGSVRLRDLKDPRSAAFLNLIGFVSRRELGSLDEVRQISLEDALRSQEIDVAYICSESSSHEDYIRQFLQAGKHVLVEFPMTLSFAAAQELWELAAQKGRVLHEEHVELLMEEFEFLRREVLGKELLKGSLRFTASPLEEERFGFPAFSGISRLTWLVSLFGELSLISATLEERKEDQYMKMTVQLETQNKGLLSWIEEKGPGLKRNRYVNFQFTSGSLEEVPSVGVNKNIFLKDQDIFVQKLLDQVSAEDLAAEKKRIMHCLGLASDIQKLCHQKK
notes: as for B7
B10: in data set [2], the Km came out at 11.7 ± 1.0 µM, the kcat stood at 13.6 ± 0.6 s⁻¹ and the kcat/Km came out at 1.2e+06 M⁻¹ s⁻¹.

B11: human BVR (Homo sapiens) (protein)
chain: MNAEPERKFGVVVVGVGRAGSVRMRDLRNPHPSSAFLNLIGFVSRRELGSIDGVQQISLEDALSSQEVEVAYICSESSSHEDYIRQFLNAGKHVLVEYPMTLSLAAAQELWELAEQKGKVLHEEHVELLMEEFAFLKKEVVGKDLLKGSLLFTAGPLEEERFGFPAFSGISRLTWLVSLFGELSLVSATLEERKEDQYMKMTVCLETEKKSPLSWIEEKGPGLKRNRYLSFHFKSGSLENVPNVGVNKNIFLKDQNIFVQKLLGQFSEKELAAEKKRILHCLGLAEEIQKYCCSRK
notes: C-terminal His tag (pET21a(+)), codon-optimized synthetic gene, E. coli BL21(DE3)
For the molecule B11, in data set [3], the Km amounted to 20.7 ± 10.1 µM, the turnover number (kcat) stood at 94.8 ± 31.4 s⁻¹ and the kcat/Km was found to be 4.6e+06 M⁻¹ s⁻¹.

B12: human BVR (Homo sapiens; R172A) (protein)
chain: MNAEPERKFGVVVVGVGRAGSVRMRDLRNPHPSSAFLNLIGFVSRRELGSIDGVQQISLEDALSSQEVEVAYICSESSSHEDYIRQFLNAGKHVLVEYPMTLSLAAAQELWELAEQKGKVLHEEHVELLMEEFAFLKKEVVGKDLLKGSLLFTAGPLEEERFGFPAFSGISALTWLVSLFGELSLVSATLEERKEDQYMKMTVCLETEKKSPLSWIEEKGPGLKRNRYLSFHFKSGSLENVPNVGVNKNIFLKDQNIFVQKLLGQFSEKELAAEKKRILHCLGLAEEIQKYCCSRK
notes: as for B11
For B12, in data set [3], the Km was determined as 87.7 ± 35.7 µM, the catalytic constant (kcat) was 17.9 ± 6.3 s⁻¹ and the kcat/Km was 200000 M⁻¹ s⁻¹.

B13: human BVR (Homo sapiens; Y98F) (protein)
chain: MNAEPERKFGVVVVGVGRAGSVRMRDLRNPHPSSAFLNLIGFVSRRELGSIDGVQQISLEDALSSQEVEVAYICSESSSHEDYIRQFLNAGKHVLVEFPMTLSLAAAQELWELAEQKGKVLHEEHVELLMEEFAFLKKEVVGKDLLKGSLLFTAGPLEEERFGFPAFSGISRLTWLVSLFGELSLVSATLEERKEDQYMKMTVCLETEKKSPLSWIEEKGPGLKRNRYLSFHFKSGSLENVPNVGVNKNIFLKDQNIFVQKLLGQFSEKELAAEKKRILHCLGLAEEIQKYCCSRK
notes: as for B11
As for B13, in data set [3], the Michaelis-Menten constant (Km) came to 3.8 ± 0.3 µM, the turnover number (kcat) turned out to be 16.8 ± 0.5 s⁻¹ and the catalytic efficiency (kcat/Km) came to 4.4e+06 M⁻¹ s⁻¹.
